Test results taken from patent US7816094B2, “Method for quantitative analysis of interactions between HIF-1alpha C-terminal peptides and CBP or p300 proteins and method of screening inhibitors using the same” (Korea Institute of Science and Technology, priority 2006, dated 2010).
Ends that are not written are not given here. * marks the point of attachment. FITC = O=C1OC2(c3ccc(O)cc3Oc3cc(O)ccc32)c2ccc(NC(=S)*)cc21; Ahx = NCCCCCC(=O)O

Legend:
[1] = target: T1, GST-p300 (truncated p300, amino acids 1-221) (Homo sapiens, UniProt Q09472); assay: Fluorescence polarization (FP)-based binding assay of fluorescein-labeled HIF-1α peptides with GST-p300; settings: increasing GST-p300 concentrations; FIG. 2B, 3B, 4C, 5B, 5D
T1 construct: made in house; host or cells: E. coli BL21
T1 sequence (Q09472 300-520): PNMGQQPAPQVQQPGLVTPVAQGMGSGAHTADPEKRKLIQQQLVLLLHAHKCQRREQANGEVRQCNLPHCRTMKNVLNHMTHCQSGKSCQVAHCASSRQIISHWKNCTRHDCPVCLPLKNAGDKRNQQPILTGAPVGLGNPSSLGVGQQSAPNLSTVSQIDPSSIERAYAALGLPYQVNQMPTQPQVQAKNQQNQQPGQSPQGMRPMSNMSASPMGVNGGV
Description: (§1) The binding affinity and features between the HIF-1α peptides and CBP or p300 proteins were analyzed by measuring the fluorescence polarization (FP) values that were changed by the formation of a protein-ligand complex through the interaction between the CBP or p300 proteins and the synthesized peptides that were manufactured by the method as described in above Example 1. The FP values were measured with a fluorescence spectrometer (Perkin-Elmer), which was set to have a slit width of 5 nm and a total integration time of 5 seconds. EBC Buffer (50 mM Tris and 120 mM NaCl; pH 8.0, 0.25% Nonidet P (NP)-40) was used for the binding reaction.
(§2) Because the cysteine-/histidine-rich 1(CH1) domain of CBP or p300 proteins that binds the C-terminal transactivation domain (C-TAD) of HIF-1α contains the Zn^2+-coordinating centers, an embodiment of the present invention first tested for the importance of Zn^2+ added in the preparation of CBP or p300 proteins by cell lysis and protein elution on their binding to the HIF-1α-derived peptides, wherein the GST-CBP or GST-p300 proteins containing the CH1 domain were prepared by cell lysis and protein elution in the presence or absence of ZnSO4. 800 nM of CBP or p300 proteins in the EBC Buffer prepared from above Example 1 were mixed with 100 nM of F-HIF-1α(776-826, SEQ ID NO: 3) and F-HIF-1α(786-826, SEQ ID NO: 4) peptides at 25° C., respectively. Then, the FP (fluorescence polarization) values were measured.
To compare interactions between the four peptides derived from different regions in HIF-1α C-TAD with CBP or p300, these fluorescein-labeled HIF-1α peptides were mixed with CBP proteins at varying concentrations from 0 to 3000 nM under the conditions of above Example 2-2, and then the FP (fluorescence polarization) values were measured (FIG. 2A).
The dissociation constants of these two peptides were determined to be 157.3 nM for HIF-1α(776-826, SEQ ID NO: 3) and 180.1 nM for HIF-1α(786-826, SEQ ID NO: 4), respectively.

[2] = target: T2, GST-p300 / F-HIF-1α-(786-826, SEQ ID NO: 4) interaction (Homo sapiens, UniProt Q09472); assay: Competitive inhibition analysis of the FP-based binding assay (F-HIF-1α-p300 interaction); settings: compared with wild-type peptide; FIG. 6
T2 construct: made in house; host or cells: E. coli BL21 for GST-p300; the tracer peptide was synthesized by Anygen
T2 sequence (Q09472 300-520): as above
Description: To compare the importance of Thr-796, Cys-800, and Asn-803 residues in the HIF-1α peptide on its p300 binding activity, an embodiment of the present invention performed competitive inhibition analyses of the FP-based binding assays using single mutant peptides. The mutant peptides were prepared with the method as described below.
Namely, human HIF-1α-(786-826, SEQ ID NO: 4) and its single mutation products prepared by PCR were subcloned into pGEX-2T-1 (Amersham Biosciences), and overexpressed in E. coli BL21 (DE3). After the GST fusion proteins were purified using glutathione-SEPHAROSE (Amersham Biosciences), followed by GST removal with thrombin treatment, the resulting peptides were purified using reverse-phase HPLC and confirmed by MALDI-TOF mass spectrometry. The results of competitive inhibition for HIF-1α-(786-826, SEQ ID NO: 4) peptides with point mutations on the HIF-1α-p300 interaction are depicted in FIG. 6.

[3] = target: T3, GST-CBP (truncated human CBP, amino acids 1-450) (Homo sapiens, UniProt Q92793); assay: Fluorescence polarization (FP)-based binding assay of fluorescein-labeled HIF-1α peptides with GST-CBP; settings: GST-CBP 0 to 3000 nM; FIG. 2A
T3 construct: made in house; host or cells: E. coli BL21
T3 sequence (Q92793 1-450): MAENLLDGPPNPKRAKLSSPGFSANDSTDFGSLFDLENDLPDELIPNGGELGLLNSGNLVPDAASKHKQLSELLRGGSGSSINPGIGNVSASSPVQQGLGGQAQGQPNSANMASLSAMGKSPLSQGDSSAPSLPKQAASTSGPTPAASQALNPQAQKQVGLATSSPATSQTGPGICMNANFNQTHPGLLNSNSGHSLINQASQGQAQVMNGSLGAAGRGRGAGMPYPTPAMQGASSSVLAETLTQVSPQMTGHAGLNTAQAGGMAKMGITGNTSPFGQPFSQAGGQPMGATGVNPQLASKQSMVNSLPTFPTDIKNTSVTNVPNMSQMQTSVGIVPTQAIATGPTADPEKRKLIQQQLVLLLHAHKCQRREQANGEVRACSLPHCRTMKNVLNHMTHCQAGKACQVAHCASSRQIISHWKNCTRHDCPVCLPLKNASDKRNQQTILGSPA
Description: as §1
as §2, with “800 nM of CBP or p300 proteins in the EBC Buffer prepared from above Example 1 were mixed with 100 nM of F-HIF-1α(776-826, SEQ ID NO: 3) and F-HIF-1α(786-826, SEQ ID NO: 4) peptides at 25° C., respectively.” left out, “measured. […]” for “measured.”

| Substance | FP values (change) upon mixing with GST-p300 [1] | competitive inhibition of F-HIF-1α-(786-826, SEQ ID NO: 4) binding to p300 [2] | FP values (change) upon mixing with GST-CBP [3] |
| --- | --- | --- | --- |
| peptide treated with N or H kinase fractions: F-HIF-1α (786-826, SEQ ID NO: 4) phosphorylated by normoxic or hypoxic HeLa kinase fractions, purified by reverse-phase HPLC | FP increase upon incubation with GST-p300, similar to the untreated peptide |  |  |
| N803A: unlabeled HIF-1α (786-826) peptide with single mutation N803A (SMDESGLPQLTSYDCEVAAPIQGSRNLLQGEELLRALDQVN; Amino acid sequence for HIF-1a(786-826)) |  | to a little lesser degrees than the wild-type |  |
| FITC-ACA-SDLACRLLGQSMDESGLPQLTSYDCEVNAPIQGSRNLLQ ({FITC-Ahx}-SDLACRLLGQSMDESGLPQLTSYDCEVNAPIQGSRNLLQ; cysteine pairing not given here) [HIF-1α(776-814, SEQ ID NO: 5), fluorescein (FITC)-labeled HIF-1α C-terminal peptide, residues 776-814, aminocaproic acid linker] | no increase upon incubation with GST-p300 |  | no increase up to 3000 nM of GST-CBP |
| hydroxylated peptide: F-HIF-1α (786-826, SEQ ID NO: 4) hydroxylated on asparagine by recombinant His-FIH-1, purified by reverse-phase HPLC | only slightly increased with increasing p300 concentrations |  |  |
| FITC-ACA-DESGLPQLTSYDCEVNAPIQGSRNLLQGEELLRAL ({FITC-Ahx}-DESGLPQLTSYDCEVNAPIQGSRNLLQGEELLRAL) [HIF-1α(788-822, SEQ ID NO: 6), fluorescein (FITC)-labeled HIF-1α C-terminal peptide, residues 788-822, aminocaproic acid linker] | increased much less than those of the above two peptides |  | increased much less than those of the above two peptides |
| T796D: unlabeled HIF-1α (786-826) peptide with single mutation T796D (SMDESGLPQLDSYDCEVNAPIQGSRNLLQGEELLRALDQVN; Amino acid sequence for HIF-1a(786-826)) |  | to a little lesser degrees than the wild-type |  |
| S-nitrosylated F-HIF-1α (786-826, SEQ ID NO: 4): F-HIF-1α (786-826, SEQ ID NO: 4) treated with SNAP, S-nitrosylated on Cys-800, purified by reverse-phase HPLC | only minimal increase in FP with increasing p300 concentrations |  |  |
